Paper PMC4749545, “Kindlin-2 cooperates with talin to activate integrins and induces cell spreading by directly binding paxillin” (eLife, 2016)

Biological target: T1, recombinant murine kindlin-2 (mouse, UniProt Q8CIB5 1-680)
T1 construct: murine kindlin-2, unmodified after SenP2 cleavage of the His10-SUMO3 tandem tag; Vector pCoofy17; also called recombinant kindlin-2; purified kindlin-2; source: E. coli Rosetta, purified (Ni-NTA, SenP2 cleavage, size-exclusion chromatography); not shown: His10, N-terminal, cleaved; SUMO3, N-terminal, cleaved
T1 sequence (looked up): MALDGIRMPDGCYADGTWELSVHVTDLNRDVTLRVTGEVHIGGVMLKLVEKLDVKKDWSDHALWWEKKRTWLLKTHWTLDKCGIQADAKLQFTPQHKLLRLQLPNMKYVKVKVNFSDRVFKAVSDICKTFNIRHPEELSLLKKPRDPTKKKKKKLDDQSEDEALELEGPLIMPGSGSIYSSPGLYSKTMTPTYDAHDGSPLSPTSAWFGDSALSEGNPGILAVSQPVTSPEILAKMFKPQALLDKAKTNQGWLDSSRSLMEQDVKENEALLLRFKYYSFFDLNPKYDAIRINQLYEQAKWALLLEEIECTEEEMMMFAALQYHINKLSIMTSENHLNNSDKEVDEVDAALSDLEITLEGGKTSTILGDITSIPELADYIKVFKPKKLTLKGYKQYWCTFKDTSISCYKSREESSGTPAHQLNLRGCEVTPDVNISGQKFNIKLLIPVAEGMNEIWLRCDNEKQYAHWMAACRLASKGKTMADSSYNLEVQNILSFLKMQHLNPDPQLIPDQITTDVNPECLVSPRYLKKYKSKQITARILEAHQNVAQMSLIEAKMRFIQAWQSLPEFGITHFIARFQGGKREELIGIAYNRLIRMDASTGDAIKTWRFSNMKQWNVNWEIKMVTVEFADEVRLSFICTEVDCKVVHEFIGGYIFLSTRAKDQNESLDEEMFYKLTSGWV
Assay: pull-down; His10-tagged paxillin-LIM3 (35 µg) or paxillin-FL (10 µg) on Ni-NTA agarose, washed with 1 mM ZnCl2; 14 µg purified kindlin-2 added for 30 min at 4°C; 20 mM Tris pH 7.5, 200 mM NaCl, 1 mM TCEP, 0.05% Tween20; washes with 25 mM imidazole and 1 mM ZnCl2; SDS-PAGE
Conditions: both partners purified

binding result: binds
B1: His10-SUMO3-paxillin-LIM3 domain (domain or fragment, mouse, UniProt Q8VI36 473-533, looked up)
chain: APKCGGCARAILENYISALNTLWHPECFVCRECFTPFVNGSFFEHDGQPYCEVHYHERRGS
notes: paxillin LIM3 domain, A473-S533; Vector pCoofy17. 'murine' in the sentence of the methods stands before kindlin-2 and may or may not hold for paxillin-LIM3; also called His10-LIM3; His-tagged paxillin-LIM3 domain; source: E. coli Rosetta, purified (Ni-NTA, size-exclusion chromatography); not shown: His10, N-terminal, kept; SUMO3, N-terminal, kept
